Changes are numbered by the printed parent chain. Names and notes keep the numbering of the source.
T1: Ser202-phosphorylated PhPINK1 (amino acids 115–575), monomeric (Pediculus humanus corporis, UniProt E0W1I1 115-575, phosphoserine at 202)
T1 construct: PINK1 of Pediculus humanus corporis, amino acids 115–575, wild type, autophosphorylated at Ser202 after dephosphorylation; For the analytical SEC the monomer fractions of the SEC run were pooled; also called phospho-PhPINK1; monomeric phosphorylated PhPINK1; not shown: GST, N-terminal, cleaved
T1 sequence (looked up): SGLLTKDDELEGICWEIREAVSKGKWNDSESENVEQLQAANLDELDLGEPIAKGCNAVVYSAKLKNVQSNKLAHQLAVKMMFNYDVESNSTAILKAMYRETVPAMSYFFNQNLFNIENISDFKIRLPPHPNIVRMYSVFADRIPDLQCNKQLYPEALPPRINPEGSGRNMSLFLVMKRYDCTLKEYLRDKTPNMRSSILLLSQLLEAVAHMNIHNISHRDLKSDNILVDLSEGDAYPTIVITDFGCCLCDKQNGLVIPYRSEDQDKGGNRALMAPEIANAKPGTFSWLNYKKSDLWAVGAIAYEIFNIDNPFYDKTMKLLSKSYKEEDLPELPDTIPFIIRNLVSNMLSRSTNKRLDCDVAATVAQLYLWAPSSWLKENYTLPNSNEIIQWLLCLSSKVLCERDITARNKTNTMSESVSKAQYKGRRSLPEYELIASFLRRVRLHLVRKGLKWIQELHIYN

B1: PhPINK1 (amino acids 143–575) (domain or fragment, Pediculus humanus corporis, UniProt E0W1I1 143-575, looked up)
chain: SESENVEQLQAANLDELDLGEPIAKGCNAVVYSAKLKNVQSNKLAHQLAVKMMFNYDVESNSTAILKAMYRETVPAMSYFFNQNLFNIENISDFKIRLPPHPNIVRMYSVFADRIPDLQCNKQLYPEALPPRINPEGSGRNMSLFLVMKRYDCTLKEYLRDKTPNMRSSILLLSQLLEAVAHMNIHNISHRDLKSDNILVDLSEGDAYPTIVITDFGCCLCDKQNGLVIPYRSEDQDKGGNRALMAPEIANAKPGTFSWLNYKKSDLWAVGAIAYEIFNIDNPFYDKTMKLLSKSYKEEDLPELPDTIPFIIRNLVSNMLSRSTNKRLDCDVAATVAQLYLWAPSSWLKENYTLPNSNEIIQWLLCLSSKVLCERDITARNKTNTMSESVSKAQYKGRRSLPEYELIASFLRRVRLHLVRKGLKWIQELHIYN
notes: PINK1 of Pediculus humanus corporis, amino acids 143–575, lacking the N-helix; also called PhPINK1 without the N-helix; the shorter PhPINK1 construct
B2: PhPINK1(D334A) (amino acids 115–575), unphosphorylated (enzyme)
chain: T1 sequence (looked up) with D220A
notes: pOPINK vector, GST tag removed with 3C PreScission protease; also called unphosphorylated PhPINK1(D334A); monomeric PhPINK1(D334A); source: E. coli Rosetta2 (DE3) pLacI, purified (Glutathione Sepharose, 3C cleavage, SEC); not shown: GST, N-terminal, cleaved
B3: PhPINK1(D357A) (amino acids 115–575) (enzyme)
chain: T1 sequence (looked up) with D243A
notes: Forms a dodecamer (two rings of three dimers); also called oligomeric PhPINK1(D357A); PhPINK1(D357A) dodecamer; source: E. coli Rosetta2 (DE3) pLacI, purified (Glutathione Sepharose, 3C cleavage, Mono Q for EM, SEC); not shown: GST, N-terminal, cleaved
B4: TcPINK1(T172C/D359A) (enzyme, Tribolium castaneum, UniProt D6WMX4 117-570, looked up)
chain: TGILTKEEELEGVCWEIREAISKIKWQYYDIDESRFESNPITLNDLSLGKPIAKGCNGVVYSAKVKDDETDDNKYPFALKMMFNYDIQSNSMEILKAMYRETVPARMYYSNHDLNNWEIELANRRKHLPPHPNIVAIFSVFTDLIQELEGSKDLYPAALPPRLHPEGEGRNMSLFLLMKRYDCNLQSFLSTAPSTRTSLLLLAQLLEGVAHMTAHGIAHRDLKSDNLLLDTSEPESPILVISAFGCCLADKTNGLSLPYTSYEMDKGGNTALMAPEIICQKPGTFSVLNYSKADLWAVGAIAYEIFNCHNPFYGPSRLKNFNYKEGDLPKLPDEVPTVIQALVANLLKRNPNKRLDPEVAANVCQLFLWAPSTWLKPGLKVPTSGEILQWLLSLTTKVLCEGKINNKSFGEKFTRNWRRTYPEYLLISSFLCRAKLANVRNALHWIQENLPELD
notes: PINK1 of Tribolium castaneum with T172C and D359A; also called TcPINK1 with an equivalent T172C mutation; source: E. coli Rosetta2 (DE3) pLacI, purified (Glutathione Sepharose, 3C cleavage, SEC); not shown: GST, N-terminal, cleaved

What was measured:
[1] = biological target: the molecule itself; test: SEC-MALS; Superdex 200 Increase 10/300 GL; 25 mM Tris (pH 8.5), 150 mM NaCl, 5% (v/v) glycerol, 2 mM TCEP; 100 µl of purified protein at 1 mg ml^−1, 0.5 ml min^−1
[2] = biological target: T1, Ser202-phosphorylated PhPINK1 (amino …); test: SEC + other: Phos-tag SDS–PAGE; Phos-tag analysis of the oligomer species from the analytical SEC of the mixed proteins; conditions: both partners purified
[3] = biological target: the molecule itself; test: cross-linking; in vitro disulphide linkage: 1.5 μM PhPINK1 or TcPINK1 with 2 mM H2O2 in 25 mM Tris (pH 7.4), 150 mM NaCl, 22 °C, time course; non-reducing gel, Coomassie

Binder | stoichiometry N [1] | also measured
B1 | 2 | –
B2 | – | stoichiometry N [2]: 1
B3 | 2 | –
B4 | – | binding result [3]: binds
